Two molecules from US20240383984A1 (Genentech, published 2024) can be followed below.

As usually defined, the Kd is a measure of binding affinity in units of concentration.

One experiment deals with T1, human CD3ε (human, UniProt P07766 23-126, limits assumed).
T1 construct: also called hCD3ε
The experiment can be described thus: BIACORE and Scatchard, monovalent.

Experiment [1] addresses T2, human FcRH3 (full-length, on SVT2 cells) (human, UniProt Q96P31 18-734).
T2 construct: whole, on cells; also called SVT2-FcRH3
T2 sequence (looked up): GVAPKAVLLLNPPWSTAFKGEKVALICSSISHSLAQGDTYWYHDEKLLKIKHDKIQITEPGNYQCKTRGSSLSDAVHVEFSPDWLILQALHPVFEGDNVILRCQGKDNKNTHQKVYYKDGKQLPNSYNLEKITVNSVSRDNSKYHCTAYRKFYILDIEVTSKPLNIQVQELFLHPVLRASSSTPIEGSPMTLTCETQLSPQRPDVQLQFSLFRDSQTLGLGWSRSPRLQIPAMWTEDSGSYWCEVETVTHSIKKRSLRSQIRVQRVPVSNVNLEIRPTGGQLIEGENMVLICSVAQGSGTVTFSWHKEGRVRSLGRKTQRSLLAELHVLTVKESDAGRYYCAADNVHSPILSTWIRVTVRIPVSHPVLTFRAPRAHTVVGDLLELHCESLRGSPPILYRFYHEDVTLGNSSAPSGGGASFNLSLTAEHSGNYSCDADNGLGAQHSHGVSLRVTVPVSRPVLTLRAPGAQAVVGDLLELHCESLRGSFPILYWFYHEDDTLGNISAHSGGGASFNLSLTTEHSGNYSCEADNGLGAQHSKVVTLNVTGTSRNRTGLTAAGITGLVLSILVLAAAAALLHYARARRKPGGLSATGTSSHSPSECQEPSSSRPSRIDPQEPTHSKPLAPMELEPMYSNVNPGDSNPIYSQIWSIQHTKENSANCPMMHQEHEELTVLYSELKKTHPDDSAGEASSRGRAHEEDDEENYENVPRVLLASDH
The experiment can be described thus: flow cytometry, SVT2 cells. As for the experimental part:
(§1) Human FcRH5, cyno FcRH5, human FcRH1, FcRH2, FcRH3, and FcRH4 transfected mouse SVT2 cells were used to test binding and cross-reactivity of FcRH5 TDBs. The method was carried out as follows. Cultured SVT2 cells were lifted using non-enzyme cell dissociation buffer (Sigma, #C5914). 1×10⁵ cells were suspended in 100 μL and incubated with FcRH5 TDBs at 3 μg/ml. […] Cells were washed twice with FACS buffer before flow cytometry analysis was carried out on a FACSCalibur.
(A flow cytometer gives signals particle by particle.)

Experiment [2] addresses T3, human FcRH5 (full-length, on cells) (human, UniProt Q96RD9 16-977).
T3 construct: Transfected SVT2/293 cells or endogenous expression (MOLP-2, primary cells); also called SVT2-FcRH5; SVT2-huFcRH5
T3 sequence: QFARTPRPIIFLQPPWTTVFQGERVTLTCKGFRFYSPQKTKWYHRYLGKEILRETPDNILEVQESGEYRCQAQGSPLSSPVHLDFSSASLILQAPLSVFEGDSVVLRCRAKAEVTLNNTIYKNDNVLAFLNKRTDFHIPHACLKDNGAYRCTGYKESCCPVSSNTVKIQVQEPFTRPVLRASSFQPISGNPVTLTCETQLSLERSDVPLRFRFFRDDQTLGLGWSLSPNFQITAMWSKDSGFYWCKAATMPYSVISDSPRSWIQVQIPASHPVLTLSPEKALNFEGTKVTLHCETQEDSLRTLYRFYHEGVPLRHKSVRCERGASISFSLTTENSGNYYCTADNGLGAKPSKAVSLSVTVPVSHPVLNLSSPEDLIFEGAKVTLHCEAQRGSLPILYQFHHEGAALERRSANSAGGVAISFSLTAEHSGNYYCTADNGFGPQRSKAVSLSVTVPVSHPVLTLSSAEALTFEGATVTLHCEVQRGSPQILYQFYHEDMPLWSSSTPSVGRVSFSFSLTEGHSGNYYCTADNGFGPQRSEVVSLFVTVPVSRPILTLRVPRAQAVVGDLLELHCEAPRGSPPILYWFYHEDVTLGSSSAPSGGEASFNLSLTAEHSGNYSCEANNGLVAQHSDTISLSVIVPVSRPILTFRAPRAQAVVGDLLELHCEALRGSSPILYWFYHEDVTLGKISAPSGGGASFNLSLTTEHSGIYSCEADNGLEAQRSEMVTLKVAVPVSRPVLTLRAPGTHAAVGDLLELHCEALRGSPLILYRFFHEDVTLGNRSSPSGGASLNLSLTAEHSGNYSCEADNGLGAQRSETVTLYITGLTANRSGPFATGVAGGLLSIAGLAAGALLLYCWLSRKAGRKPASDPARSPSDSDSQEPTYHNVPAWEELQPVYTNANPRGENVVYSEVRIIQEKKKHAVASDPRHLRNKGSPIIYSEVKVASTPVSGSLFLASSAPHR
The experiment can be described thus: flow cytometry, SVT2 cells. As for the experimental part: as §1

T1 sequence (P07766 23-126 limits assumed): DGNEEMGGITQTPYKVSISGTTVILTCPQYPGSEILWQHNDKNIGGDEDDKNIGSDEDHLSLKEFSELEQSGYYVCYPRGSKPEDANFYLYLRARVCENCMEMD

B1: UCHT1.v9 (antibody, V domains shown)
VH: EVQLVESGGGLVQPGGSLRLSCAASGYSFTGYTMNWVRQAPGKDLEWVALINPYKGVSTYNQKFKDRFTISVDKSKNTAYLQMNSLRAEDTAVYYCARSGYYGDSDWYFDVWGQGTLVTVSS
VL: DIQMTQSPSSLSASVGDRVTITCRASQDIRNYLNWYQQKPGKAPKLLIYYTSRLESGVPSRFSGSGSGTDYTLTISSLQPEDFATYYCQQGNTLPWTFGQGTKLELK
notes: humanized anti-CD3; also called huUCHT1.v9
The molecule B1 displayed a Kd with human CD3ε of 2.5 nM.

B2: hu1G7.v87/38E4.v1 TDB (bispecific antibody, V domains shown)
VH 1: EVQLVESGPGLVKPSETLSLTCTVSGFSLTRFGVHWVRQPPGKGLEWLGVIWRGGSTDYNAAFVSRLTISKDNSKNQVSLKLSSVTAADTAVYYCSNHYYGSSDYALDNWGQGTLVTVSS
VL 1: DIQMTQSPSSLSASVGDRVTITCKASQDVSNIVVWFQQKPGKSPKLLIYSASYRYTGVPSRFSGSGSGTDFTLTISSLQPEDFATYYCQQHYSSPYTFGQGTKVEIK
VH 2: EVQLVQSGAEVKKPGASVKVSCKASGFTFTSYYIHWVRQAPGQGLEWIGWIYPENDNTKYNEKFKDRVTITADTSTSTAYLELSSLRSEDTAVYYCARDGYSRYYFDYWGQGTLVTVSS
VL 2: DIVMTQSPDSLAVSLGERATINCKSSQSLLNSRTRKNYLAWYQQKPGQSPKLLIYWTSTRKSGVPDRFSGSGSGTDFTLTISSLQAEDVAVYYCKQSFILRTFGQGTKVEIK
notes: knob-into-hole TDB; also called 1G7.v87 TDB
For B2, the binding result in experiment [1] was “no binding”; in experiment [2] it was “binds”.
